The term IC50 denotes the midpoint of a concentration-inhibition curve. Lower therefore signals inhibition by little substance. As usually defined, the Cmax is the peak of the concentration-time curve. The term Tmax denotes the time from dosing to the highest level.

Read-outs that look alike come from different tables or passages of the source. Where no end group is shown, it is not given here. A value given as a limit tells only on which side of the number the result lay.

The target in one data set is T1, Human PAC1 Receptor (Homo sapiens, UniProt P41586).
T1 construct: expressed in transfected cells
T1 sequence (P41586 21-468): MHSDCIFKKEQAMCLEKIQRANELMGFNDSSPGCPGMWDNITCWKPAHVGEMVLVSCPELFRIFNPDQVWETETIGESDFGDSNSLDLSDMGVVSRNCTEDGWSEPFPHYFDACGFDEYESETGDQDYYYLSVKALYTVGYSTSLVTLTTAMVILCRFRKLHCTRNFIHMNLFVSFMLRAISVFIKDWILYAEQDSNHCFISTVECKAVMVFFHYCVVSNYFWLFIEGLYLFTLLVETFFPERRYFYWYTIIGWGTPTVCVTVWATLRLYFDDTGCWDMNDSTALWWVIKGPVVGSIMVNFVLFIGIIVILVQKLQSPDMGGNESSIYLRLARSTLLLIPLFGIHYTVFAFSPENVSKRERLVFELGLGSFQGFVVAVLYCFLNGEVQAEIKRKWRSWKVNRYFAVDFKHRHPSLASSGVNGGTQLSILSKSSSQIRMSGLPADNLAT
The data set can be described thus: Filter binding assay, 125I-labeled PACAP-27, membranes of cells transiently transfected with human PAC1. The method, then:
(§1) For this assay, the solutions and equipment include:
(§2) Presoak solution: 0.5% Polyethyleneamine in Aqua dest
(§3) Buffer for flushing filter plates: 25 mM HEPES pH 7.4
(§4) Blocking buffer: 25 mM HEPES pH 7.4; 0.2% protease free BSA
(§5) Assay buffer: 25 mM HEPES pH 7.4; 0.5% protease free BSA
(§6) Dilution and assay plate: PS-Microplate, U form
(§7) Filtration Plate Multiscreen FB Opaque Plate; […] Type B Glasfiber filter
(§8) In order to prepare the filter plates, the presoak solution is aspirated by vacuum filtration. The plates are flushed twice with 200 μL flush buffer. 200 μL blocking buffer is added to the filter plate. The filter plate is then incubated with 200 μL presoak solution for 1 hour at room temperature.
(§9) The assay plate is filled with 25 μL assay buffer, 25 μL membranes (2.5 μg) suspended in assay buffer, 25 μL agonist in assay buffer, and 25 μL tracer (about 40000 cpm) in assay buffer. The filled plate is incubated for 1 hour with shaking.
(§10) The transfer from assay plate to filter plate is conducted. The blocking buffer is aspirated by vacuum filtration and washed two times with flush buffer. 90 μL is transferred from the assay plate to the filter plate. The 90 μL transferred from assay plate is aspirated and washed three times with 200 μL flush buffer. The plastic support is removed. It is dried for 1 hour at 60° C. 30 μL Microscint is added. The count is performed.

The nature of data set [1]: Rat serum stability study (DiscoveRx cAMP read-out on CHO-VPAC2 cells). Particulars: 24 h in rat serum at 37° C.; EC50, 4° C./EC50, 37° C.; values >100% may represent release of intact peptide from the PEG conjugate. The method, then:
In order to determine the stability of VPAC2 receptor peptide agonists in rat serum, CHO-VPAC2 cells clone #6 (96 well plates/50,000 cells/well and 1 day culture), PBS 1× (Gibco), the peptides for the analysis in a 100 μM stock solution, rat serum from a sacrificed normal Wistar rat, aprotinin, and a DiscoveRx assay kit are obtained. The rat serum is stored at 4° C. until use and is used within two weeks.
The aliquot is stored with aprotinin at 4° C. The aliquot is stored without aprotinin at 37° C. The aliquots are incubated for 24 or 72 hours.
On Day 1, after incubation of the aliquots prepared on day 0 for 24 or 72 hours, an incubation buffer containing PBS+1.3 mM CaCl2, 1.2 mM MgCl2, 2 mM glucose, and 0.25 mM IBMX is prepared. A plate with 11 serial 5× dilutions of peptide for the 4° C. and 37° C. aliquot is prepared for each peptide studied. […] The plate(s) are washed with cells twice in incubation buffer. The plates are allowed to hold 50 μL incubation media per well for 15 minutes. 50 μL solution per well is transferred to the cells from the plate prepared with 11 serial 5× dilutions of peptide for the 4° C. and 37° C. aliquot for each peptide studied, using the maximal concentrations that are indicated by the primary screen, in duplicate. This step dilutes the peptide concentration by a factor of two. The cells are incubated at room temperature for 30 minutes. The supernatant is removed. 40 μL/well of the DiscoveRx antibody/extraction buffer is added. The cells are incubated on the shaker (300 rpm) for 1 hour. Normal procedure with the DiscoveRx kit is followed. cAMP standards are included in column 12. EC50 values are determined from the cAMP assay data.

For a further data set, the target named is T2, Human VPAC1 Receptor (Homo sapiens, UniProt P32241).
T2 construct: expressed in transfected cells
T2 sequence (P32241 31-457): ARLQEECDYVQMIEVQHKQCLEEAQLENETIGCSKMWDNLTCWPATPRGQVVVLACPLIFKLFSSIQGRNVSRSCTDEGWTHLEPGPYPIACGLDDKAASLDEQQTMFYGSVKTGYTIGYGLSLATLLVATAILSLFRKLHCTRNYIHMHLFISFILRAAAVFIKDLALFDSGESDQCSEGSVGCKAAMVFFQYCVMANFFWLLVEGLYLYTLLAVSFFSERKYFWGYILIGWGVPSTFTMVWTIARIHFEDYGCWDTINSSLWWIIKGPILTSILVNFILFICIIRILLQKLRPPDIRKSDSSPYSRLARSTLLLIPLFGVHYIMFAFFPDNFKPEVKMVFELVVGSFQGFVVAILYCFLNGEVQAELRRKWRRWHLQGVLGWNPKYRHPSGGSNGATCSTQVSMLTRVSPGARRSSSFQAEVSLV
As to the kind of experiment: Filter binding assay, 125I-labeled VIP, membranes of cells transiently transfected with human VPAC1. To be noted: 125I-labeled VIP tracer. The procedure: as §1, §2, §3, §4, §5, §6, §7, §8, §9, §10

The nature of data set [2]: Pharmacokinetic profiles of PEGylated peptides in Fisher 344 rats. The class given is in vivo, rat. To be noted: 100 μg agonist/kg, plasma RIA, mean N = 3. The method, then: Pharmacokinetic profiles of PEGylated peptides. Healthy Fisher 344 rats (3 animals per group) were injected with 100 μg agonist/kg (agonist amount based on peptide content and dissolved in PBS buffer). Blood samples were drawn 3, 12, 24, 48, 72, 96 and 168 hour post dosing and the peptide content in plasma was analysed by a radio-immunoassay (RIA) directed against the N-terminus of the peptide. PK parameters were then calculated using a model-independent method (WinNonlin Pro, Pharsight Corp., Mountain View, Calif., USA).

Another data set has as its system Normal Wistar rats. As to the kind of experiment: Intravenous glucose tolerance test (IVGTT). The class given is in vivo, rat. Particulars: AUC insulin, 0-10 min after glucose; 0.1 mg/kg; 24 h between glucose & compound; Wistar rats. The method, then:
Intravenous glucose tolerance test (IVGTT): Normal Wistar rats are fasted overnight and are anesthetized prior to the experiment. A blood sampling catheter is inserted into the rats. The agonist is given subcutaneously, normally 24 h prior to the glucose challenge. Blood samples are taken from the carotid artery. A blood sample is drawn immediately prior to the injection of glucose along with the agonist. After the initial blood sample, glucose mixed is injected intravenously (i.v.). A glucose challenge of 0.5 g/kg body weight is given, injecting a total of 1.5 mL vehicle with glucose and agonist per kg body weight. The peptide concentrations are varied to produce the desired dose in μg/kg. Blood samples are drawn at 2, 4, 6 and 10 minutes after giving glucose. The control group of animals receives the same vehicle along with glucose, but with no agonist added. In some instances, 20 and 30 minute post-glucose blood samples were drawn. Aprotinin is added to the blood sample (250-500 kIU/ml blood). The plasma is then analyzed for glucose and insulin using standard methodologies.
The assay uses a formulated and calibrated peptide stock in PBS. Normally, this stock is a prediluted 100 μM stock. However, a more concentrated stock with approximately 1 mg agonist per mL is used. The specific concentration is always known. Variability in the maximal response is mostly due to variability in the vehicle dose.

In the case of `CC[C@H](C)[C@H](NC(=O)[C@H](CO)NC(=O)[C@H](CC(N)=O)NC(=O)[C@H](CC(C)C)NC(=O)[C@H](Cc1ccc(O)cc1)NC(=O)[C@H](CCCCN)NC(=O)[C@H](CCCCN)NC(=O)[C@@H](NC(=O)[C@H](C)NC(=O)[C@H](CCSC)NC(=O)[C@H](CCC(N)=O)NC(=O)[C@H](CCCCN)NC(=O)[C@H](CCCN=C(N)N)NC(=O)[C@H](CC(C)C)NC(=O)[C@H](CCCN=C(N)N)NC(=O)[C@@H](NC(=O)[C@H](Cc1ccc(O)cc1)NC(=O)[C@H](CC(N)=O)NC(=O)[C@H](CC(=O)O)NC(=O)[C@@H](NC(=O)[C@H](Cc1ccccc1)NC(=O)[C@@H](NC(=O)[C@H](C)NC(=O)[C@H](CC(=O)O)NC(=O)[C@H](CO)NC(=O)[C@@H](N)Cc1cnc[nH]1)C(C)C)[C@@H](C)O)[C@@H](C)O)C(C)C)C(=O)N[C@@H](CC(C)C)C(=O)N[C@@H](CC(N)=O)C(=O)O` [VIP, reference compound], on Human PAC1 Receptor, the IC50 was over 1000 nM. Also, the “24 h stab (%)” value in data set [1] turned out to be 0.2%.

For the compound “C6-HSDAVFTEQY(OMe)TOrnLRAibQC(PEG40K)AAbuAibOrnYLQAibIOrnOrnGGPSSGAPPPS-NH2 (HSDAVFTEQYTXLRXQCAXXXYLQXIXXGGPSSGAPPPS; C6 acyl, PEG40K on Cys, C-terminal amide; Synthetic sequence PEGylated VPAC2 receptor agonist) [Agonist P545]”, the half-maximal inhibitory concentration (IC50) with Human VPAC1 Receptor was over 25000 nM. The same compound had an IC50 with Human PAC1 Receptor (125I-labeled PACAP-27 tracer) of over 25000 nM. For the same compound, in data set [2], the AUC0-last came out at 12737 ng·h/mL, the Cl/F was determined as 0.12 mL/min/kg, the Cmax was found to be 139 ng/mL and the Tmax is on record as 72 h. The compound further gave a T½ in data set [2] of 43 h.

With “C6-HSDAVFTEQY(OMe)TOrnLRAibQLAAbuAibOrnY(OMe)LQAibIOrnOrnGGPSSGAPPPC(PEG20K)C(PEG20K)-NH2 (HSDAVFTEQYTXLRXQLAXXXYLQXIXXGGPSSGAPPPCC; C6 acyl, non-natural residues, two PEG20K, C-terminal amide; Synthetic sequence PEGylated VPAC2 receptor agonist) [Agonist P574]”, the IC50 with Human VPAC1 Receptor was over 25000 nM. The same compound had an IC50 with Human PAC1 Receptor (125I-labeled PACAP-27 tracer) of over 25000 nM. In addition, in data set [2], the AUC0-last worked out at 3408 ng·h/mL, the Cl/F was determined as 0.467 mL/min/kg, the maximum concentration (Cmax) was 70 ng/mL and the time to peak (Tmax) is 20 h. In data set [2], this compound had a T½ of 18 h. Moreover, the “24 h stab (%)” value in data set [1] came out at 288%.

Regarding “C6-HSDAVFTEQY(OMe)TOrnLRAibQLAAbuAibOrnYLQSIOrnC(PEG20K)OrnGGPSSGAPPPC(PEG20K)-NH2 (HSDAVFTEQYTXLRXQLAXXXYLQSIXCXGGPSSGAPPPC; C6 acyl, two PEG20K, C-terminal amide; Synthetic sequence PEGylated VPAC2 receptor agonist) [Agonist P555]”, the IC50 in the data set with Human VPAC1 Receptor is over 25000 nM. For the same compound, the IC50 with Human PAC1 Receptor (125I-labeled PACAP-27 tracer) is over 25000 nM. In addition, in data set [2], the AUC0-last was determined as 4918 ng·h/mL, the Cl/F was 0.333 mL/min/kg, the Cmax is on record as 102 ng/mL and the Tmax stood at 16 h. The same compound returned a T½ in data set [2] of 13 h. The “24 h stab (%)” value in data set [1] worked out at 117%.

In the case of “C6-HSDAVFTEQY(OMe)TOrnLRAibQLAAbuAibOrnyLQAibIOrnOrnGGPSSGAPPPC(PEG30K)C(PEG30K)-NH2 (HSDAVFTEQYTXLRXQLAXXXYLQXIXXGGPSSGAPPPCC; not fully specified (some residues, N-terminus, C-terminus); printed as C6-HSDAVFTEQY(OMe)TOrnLRAibQLAAbuAibOrnyLQAibIOrnOrnGGPSSGAPPPC(PEG30K)C(PEG30K)-NH2; cysteine pairing not given here) [Agonist P570]”, the IC50 with Human VPAC1 Receptor is over 25000 nM. The compound also showed a half-maximal inhibitory concentration (IC50) in the data set with Human PAC1 Receptor (125I-labeled PACAP-27 tracer) of over 25000 nM. In addition, the “% increase AUC: Dose = 0.1 mg/kg” value with Normal Wistar rats was determined as 36%. Further, in data set [2], the AUC0-last amounted to 3891 ng·h/mL, the Cl/F is 0.417 mL/min/kg, the Cmax is reported as 71 ng/mL and the Tmax is given as 20 h. Besides, in data set [2], the T½ is 25 h.

Regarding “C6-HSDAVFTEQY(OMe)TOrnLRAibQVAAAibOrnYLQSIOrnOrnC(PEG20K)GGPSSGAPPPC(PEG20K)NH2 (HSDAVFTEQYTXLRXQVAAXXYLQSIXXCGGPSSGAPPPC; C6 acyl, two PEG20K, C-terminal amide; Synthetic sequence PEGylated VPAC2 receptor agonist) [Agonist P562]”, the IC50 with Human VPAC1 Receptor is over 25000 nM. Also, the IC50 with Human PAC1 Receptor (125I-labeled PACAP-27 tracer) was over 25000 nM. In data set [2], the AUC0-last amounted to 5456 ng·h/mL, the Cl/F is 0.317 mL/min/kg, the Cmax is recorded as 120 ng/mL and the Tmax worked out at 24 h. In data set [2], this compound displayed a T½ of 25 h. In data set [1], the “24 h stab (%)” value was determined as 213%.

In the case of “C6-HSDAYFTEQY(OMe)TOrnLRAibQLAAbuAibOrnYLQSIOrnK(CO(CH2)2SPEG20K)OrnGGPSSGAPPPC(PEG20K)-NH2 [Agonist P551]”, the IC50 with Human VPAC1 Receptor and with Human PAC1 Receptor (125I-labeled PACAP-27 tracer) was over 25000 nM in each case.

(Values after US7897573B2, “Selective VPAC2 receptor peptide agonists” (priority 2005, dated 2011).)
